Experimental data reported in the supplement of paper PMC5998384.

Experiments:
[1] = system: HeLa Kyoto; assay: thermal stability score vs G1/S (z-score of summed log2 fold changes over temperatures); higher = more thermally stable than in G1/S
[2] = system: HeLa Kyoto; assay: solubility change mitosis vs G1/S (difference of NP-40 vs SDS log2 ratios) (log2 ratio difference); higher = more soluble in mitosis
[3] = system: HeLa Kyoto; assay: solubility in G1/S (NP-40 vs SDS abundance) (log2 ratio); higher = more soluble; conditions: cell cycle stage: G1/S
[4] = cell cycle stage: early G1 (4.5 h after nocodazole release)
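For solubility change mitosis vs G1/S (difference of NP-40 vs SDS log2 ratios) in this document: synchronized HeLa Kyoto cells (double thymidine block for G1/S, nocodazole release for mitosis), protein amounts in NP-40 versus SDS lysates quantified by mass spectrometry, three biological replicates.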
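For solubility in G1/S (NP-40 vs SDS abundance) in this document: HeLa Kyoto cells arrested at G1/S by double thymidine block, proteins quantified by TMT10plex mass spectrometry in mild NP-40 versus SDS extracts, three biological replicates.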
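For thermal stability score vs G1/S (z-score of summed log2 fold changes over temperatures) in this document: synchronized HeLa Kyoto cells, proteins quantified by TMT10plex mass spectrometry, three biological replicates, mitosis taken 0.5 h after nocodazole release, G1/S directly after double thymidine block.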

Chain of BMS1 (chain, as listed by the source): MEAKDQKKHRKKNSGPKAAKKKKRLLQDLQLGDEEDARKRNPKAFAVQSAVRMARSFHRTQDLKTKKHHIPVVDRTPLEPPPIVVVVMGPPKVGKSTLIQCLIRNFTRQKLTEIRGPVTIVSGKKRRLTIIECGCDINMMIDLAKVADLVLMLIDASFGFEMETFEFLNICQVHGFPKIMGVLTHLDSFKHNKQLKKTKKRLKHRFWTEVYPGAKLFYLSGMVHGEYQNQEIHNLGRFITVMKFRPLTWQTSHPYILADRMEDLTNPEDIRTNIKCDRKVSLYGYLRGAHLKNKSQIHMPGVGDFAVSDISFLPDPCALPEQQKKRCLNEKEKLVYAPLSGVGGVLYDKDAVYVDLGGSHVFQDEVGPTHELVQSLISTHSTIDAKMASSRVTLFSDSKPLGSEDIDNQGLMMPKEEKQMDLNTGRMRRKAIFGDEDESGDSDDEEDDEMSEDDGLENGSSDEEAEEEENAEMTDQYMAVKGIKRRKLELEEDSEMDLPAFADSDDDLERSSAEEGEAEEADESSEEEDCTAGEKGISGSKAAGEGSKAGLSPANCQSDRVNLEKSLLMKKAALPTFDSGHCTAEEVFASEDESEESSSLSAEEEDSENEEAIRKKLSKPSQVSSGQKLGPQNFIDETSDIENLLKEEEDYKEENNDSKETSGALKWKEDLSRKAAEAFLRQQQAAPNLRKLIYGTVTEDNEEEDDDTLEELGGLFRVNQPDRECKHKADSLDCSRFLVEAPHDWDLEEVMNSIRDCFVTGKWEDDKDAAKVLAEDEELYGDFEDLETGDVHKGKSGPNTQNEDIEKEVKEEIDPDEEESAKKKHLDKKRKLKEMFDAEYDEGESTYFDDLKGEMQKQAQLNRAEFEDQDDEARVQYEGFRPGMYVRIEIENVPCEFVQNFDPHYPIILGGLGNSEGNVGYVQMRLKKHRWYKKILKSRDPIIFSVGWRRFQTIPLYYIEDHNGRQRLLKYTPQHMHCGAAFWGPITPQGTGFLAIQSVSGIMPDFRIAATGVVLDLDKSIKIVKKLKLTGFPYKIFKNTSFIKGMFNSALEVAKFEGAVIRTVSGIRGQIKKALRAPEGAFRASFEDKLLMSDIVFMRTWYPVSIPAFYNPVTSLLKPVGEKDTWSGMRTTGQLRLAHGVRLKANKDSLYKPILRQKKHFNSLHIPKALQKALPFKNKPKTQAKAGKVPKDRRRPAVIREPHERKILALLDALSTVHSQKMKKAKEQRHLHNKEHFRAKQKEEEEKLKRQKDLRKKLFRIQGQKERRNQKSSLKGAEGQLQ
Chain of NCOA2 (chain, as listed by the source): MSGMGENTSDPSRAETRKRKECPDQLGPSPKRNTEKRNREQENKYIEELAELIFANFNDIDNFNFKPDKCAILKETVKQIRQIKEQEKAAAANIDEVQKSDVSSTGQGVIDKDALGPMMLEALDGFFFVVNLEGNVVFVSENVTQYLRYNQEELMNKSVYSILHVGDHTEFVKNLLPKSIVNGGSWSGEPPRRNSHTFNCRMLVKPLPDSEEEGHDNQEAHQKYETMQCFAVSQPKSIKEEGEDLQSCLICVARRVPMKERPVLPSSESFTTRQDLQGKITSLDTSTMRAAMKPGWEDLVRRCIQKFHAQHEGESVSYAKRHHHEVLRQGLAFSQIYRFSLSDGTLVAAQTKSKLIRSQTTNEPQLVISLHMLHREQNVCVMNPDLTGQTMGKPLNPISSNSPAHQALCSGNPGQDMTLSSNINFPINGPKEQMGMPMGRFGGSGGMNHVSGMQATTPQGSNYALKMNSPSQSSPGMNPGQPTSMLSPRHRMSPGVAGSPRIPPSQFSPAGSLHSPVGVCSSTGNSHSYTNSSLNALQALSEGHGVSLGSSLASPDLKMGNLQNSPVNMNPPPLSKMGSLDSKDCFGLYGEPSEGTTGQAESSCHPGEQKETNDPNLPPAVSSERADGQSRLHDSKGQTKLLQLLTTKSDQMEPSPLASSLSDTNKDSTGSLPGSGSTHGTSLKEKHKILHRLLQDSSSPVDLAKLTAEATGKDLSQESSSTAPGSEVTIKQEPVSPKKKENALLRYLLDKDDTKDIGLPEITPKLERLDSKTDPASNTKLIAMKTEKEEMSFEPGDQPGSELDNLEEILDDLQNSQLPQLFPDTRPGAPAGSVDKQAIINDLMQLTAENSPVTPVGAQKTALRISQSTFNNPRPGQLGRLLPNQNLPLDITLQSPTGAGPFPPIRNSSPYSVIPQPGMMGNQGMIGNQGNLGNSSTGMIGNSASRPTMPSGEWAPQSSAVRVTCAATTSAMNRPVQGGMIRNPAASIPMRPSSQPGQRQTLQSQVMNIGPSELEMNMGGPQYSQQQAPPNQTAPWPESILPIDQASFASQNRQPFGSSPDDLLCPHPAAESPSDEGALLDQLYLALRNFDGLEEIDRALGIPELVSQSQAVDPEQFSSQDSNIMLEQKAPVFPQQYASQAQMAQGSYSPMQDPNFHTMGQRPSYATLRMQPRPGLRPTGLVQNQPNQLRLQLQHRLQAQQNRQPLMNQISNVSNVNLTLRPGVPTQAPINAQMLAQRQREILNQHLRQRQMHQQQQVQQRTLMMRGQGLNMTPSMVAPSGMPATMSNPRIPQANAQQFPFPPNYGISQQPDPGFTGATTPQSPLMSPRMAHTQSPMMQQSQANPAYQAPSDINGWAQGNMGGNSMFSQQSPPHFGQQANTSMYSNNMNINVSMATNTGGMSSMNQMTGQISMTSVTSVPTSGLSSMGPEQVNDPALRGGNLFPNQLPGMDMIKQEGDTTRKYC
Chain of POLR3K (chain, as listed by the source): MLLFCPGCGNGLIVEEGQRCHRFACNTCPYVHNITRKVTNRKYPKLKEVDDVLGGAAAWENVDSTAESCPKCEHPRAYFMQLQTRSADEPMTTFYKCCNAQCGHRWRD
Chain of PEX16 (chain, as listed by the source): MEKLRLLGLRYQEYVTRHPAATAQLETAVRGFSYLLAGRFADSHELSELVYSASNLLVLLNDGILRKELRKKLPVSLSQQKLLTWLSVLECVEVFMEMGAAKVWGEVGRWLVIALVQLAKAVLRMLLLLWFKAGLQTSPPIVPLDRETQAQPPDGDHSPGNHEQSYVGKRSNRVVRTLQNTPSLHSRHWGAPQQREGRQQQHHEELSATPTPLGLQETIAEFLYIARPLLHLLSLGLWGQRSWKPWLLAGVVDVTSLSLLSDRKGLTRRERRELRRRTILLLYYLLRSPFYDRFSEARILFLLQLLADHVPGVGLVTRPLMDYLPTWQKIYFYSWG
Chain of TFAP2C (chain, as listed by the source): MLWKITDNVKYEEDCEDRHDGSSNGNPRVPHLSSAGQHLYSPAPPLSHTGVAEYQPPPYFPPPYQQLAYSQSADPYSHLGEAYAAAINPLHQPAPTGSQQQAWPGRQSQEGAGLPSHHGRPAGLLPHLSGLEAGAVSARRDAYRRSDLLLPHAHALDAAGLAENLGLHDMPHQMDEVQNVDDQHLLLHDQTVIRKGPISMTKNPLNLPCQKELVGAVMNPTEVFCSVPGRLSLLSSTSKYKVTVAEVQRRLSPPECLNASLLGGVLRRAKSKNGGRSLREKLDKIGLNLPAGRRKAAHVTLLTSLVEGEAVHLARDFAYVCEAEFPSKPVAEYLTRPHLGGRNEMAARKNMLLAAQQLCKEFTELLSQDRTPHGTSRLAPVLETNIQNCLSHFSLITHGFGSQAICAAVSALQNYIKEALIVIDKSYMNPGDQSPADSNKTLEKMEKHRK
Chain of TAF5L (chain, as listed by the source): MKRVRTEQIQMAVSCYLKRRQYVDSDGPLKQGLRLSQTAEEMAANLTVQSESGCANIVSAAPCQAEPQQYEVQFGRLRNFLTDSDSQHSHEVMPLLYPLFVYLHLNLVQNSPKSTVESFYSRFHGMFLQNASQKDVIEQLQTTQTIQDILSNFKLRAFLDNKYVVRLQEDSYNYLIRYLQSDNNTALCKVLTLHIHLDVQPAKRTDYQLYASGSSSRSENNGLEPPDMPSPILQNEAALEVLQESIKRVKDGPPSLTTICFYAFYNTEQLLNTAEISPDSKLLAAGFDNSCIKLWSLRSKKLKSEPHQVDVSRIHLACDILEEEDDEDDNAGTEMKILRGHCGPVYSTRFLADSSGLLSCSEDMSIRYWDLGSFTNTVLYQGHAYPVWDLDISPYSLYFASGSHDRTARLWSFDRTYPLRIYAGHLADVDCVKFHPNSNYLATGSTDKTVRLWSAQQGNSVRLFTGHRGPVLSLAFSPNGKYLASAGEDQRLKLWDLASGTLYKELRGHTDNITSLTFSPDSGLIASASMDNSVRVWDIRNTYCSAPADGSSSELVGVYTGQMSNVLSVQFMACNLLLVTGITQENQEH

| Substance | thermal stability score [1, 4] | thermal stability score ([1]; cell cycle stage: mitosis) | solubility change mitosis (log2) [2] | solubility in G1/S (log2) [3] |
| --- | --- | --- | --- | --- |
| BLM | -0.277 | -0.894 | 0.632 | -0.848 |
| BMS1 | -1.95 | -3.51 | 0.919 | -2.43 |
| CEP170B | -3.46e-17 | -1.29e-17 | 0.338 | 0.0802 |
| DISP1 | -0.198 | 0.756 | -0.159 | 0.0363 |
| KIAA1671 | -0.863 | -1.71 | 1.05 | -1.28 |
| MVGPGPTAAAAVEERQRKLQEYLAAKGKLKSQNTKPYLKSKNNCQNQPPSKSTIRPKNDVTNHVVLPVKPKRSISIKLQPRPPNTAGSQKPKLEPPKLLGKRLTSECVSSNPYSKPSSKSFQQCEAGSSTTGELSRKPVGSLNIEQLKTTKQQLTDQGNGKCIDFMNNIHVENESLDNFLKETNKENLLDILTEPERKPDPKLYTRSKPKTDSYNQTKNSLVPKQALGKSSVNSAVLKDRVNKQFVGETQSRTFPVKSQQLSRGADLARPGVKPSRTVPSHFIRTLSKVQSSKKPVVKNIKDIKVNRSQYERPNETKIRSYPVTEQRVKHTKPRTYPSLLQGEYNNRHPNIKQDQKSSQVCIPQTSCVLQKSKAISQRPNLTVGRFNSAIPSTPSIRPNGTSGNKHNNNGFQQKAQTLDSKLKKAVPQNHFLNKTAPKTQADVTTVNGTQTNPNIKKKATAEDRRKQLEEWQKSKGKTYKRPPMELKTKRKVIKEMNISFWKSIEKEEEEKKAQLELSSKINNTLTECLNLIEGGVPSNEILNILSSIPEAEKFAKFWICKAKLLASKGTFDVIGLYEEAIKNGATPIQELRKVVLNILQDSNRTTEGITSDSLVAETSITSVEELAKKMESVKSCLSPKEREQVTATPRIAKAEQHNYPGIKLQIGPIPRINGMPEVQDMKFITPVRRSSRIERAVSRYPEMLQEHDLVVASLDELLEVEETKCFIFRRNEALPVTLGFQTPES [CKAP2L] | – | – | 0.95 | -1.14 |
| MVPAAGRRPPRVMRLLGWWQVLLWVLGLPVRGVEVAEESGRLWSEEQPAHPLQVGAVYLGEEELLHDPMGQDRAAEEANAVLGLDTQGDHMVMLSVIPGEAEDKVSSEPSGVTCGAGGAEDSRCNVRESLFSLDGAGAHFPDREEEYYTEPEVAESDAAPTEDSNNTESLKSPKVNCEERNITGLENFTLKILNMSQDLMDFLNPNGSDCTLVLFYTPWCRFSASLAPHFNSLPRAFPALHFLALDASQHSSLSTRFGTVAVPNILLFQGAKPMARFNHTDRTLETLKIFIFNQTGIEAKKNVVVTQADQIGPLPSTLIKSVDWLLVFSLFFLISFIMYATIRTESIRWLIPGQEQEHVE [TXNDC15] | – | – | -0.0906 | 0.719 |
| MVPPVQVSPLIKLGRYSALFLGVAYGATRYNYLKPRAEEERRIAAEEKKKQDELKRIARELAEDDSILK [ATP5I] | – | – | 0.197 | -0.147 |
| MVSDEDELNLLVIVVDANPIWWGKQALKESQFTLSKCIDAVMVLGNSHLFMNRSNKLAVIASHIQESRFLYPGKNGRLGDFFGDPGNPPEFNPSGSKDGKYELLTSANEVIVEEIKDLMTKSDIKGQHTETLLAGSLAKALCYIHRMNKEVKDNQEMKSRILVIKAAEDSALQYMNFMNVIFAAQKQNILIDACVLDSDSGLLQQACDITGGLYLKVPQMPSLLQYLLWVFLPDQDQRSQLILPPPVHVDYRAACFCHRNLIEIGYVCSVCLSIFCNFSPICTTCETAFKISLPPVLKAKKKKLKVSA [GTF2H3] | – | – | 0.117 | -0.126 |
| MVVSKMNKDAQMRAAINQKLIETGERERLKELLRAKLIECGWKDQLKAHCKEVIKEKGLEHVTVDDLVAEITPKGRALVPDSVKKELLQRIRTFLAQHASL [ENY2] | – | – | 0.636 | -0.203 |
| MWMTPKRSKMEVDEALVFRPEWTQRYLVVEPPEGDGALCLVCRRLIVATRERDVRRHYEAEHEYYERYVADGERAALVERLRQGDLPVASFTPEERAARAGLGLCRLLALKGRGWGEGDFVYQCMEVLLREVLPEHVSVLQGVDLSPDITRQRILSIDRNLRNQLFNRARDFKAYSLALDDQAFVAYENYLLVFIRGVGPELEVQEDLLTIINLTHHFSVGALMSAILESLQTAGLSLQRMVGLTTTHTLRMIGENSGLVSYMREKAVSPNCWNVIHYSGFLHLELLSSYDVDVNQIINTISEWIVLIKTRGVRRPEFQTLLTESESEHGERVNGRCLNNWLRRGKTLKLIFSLRKEMEAFLVSVGATTVHFSDKQWLCDFGFLVDIMEHLRELSEELRVSKVFAAAAFDHICTFEVKLNLFQRHIEEKNLTDFPALREVVDELKQQNKEDEKIFDPDRYQMVICRLQKEFERHFKDLRFIKKDLELFSNPFNFKPEYAPISVRVELTKLQANTNLWNEYRIKDLGQFYAGLSAESYPIIKGVACKVASLFDSNQICEKAFSYLTRNQHTLSQPLTDEHLQALFRVATTEMEPGWDDLVRERNESNP [EPM2AIP1] | – | – | 0.291 | -0.485 |
| MYFLSGWPKRLLCPLGSPAEAPFHVQSDPQRAFFAVLAAARLSIWYSRPSVLIVTYKEPAKSSTQFGSYKQAEWRPDSTMIAVSTANGYILFFHITSTRGDKYLYEPVYPKGSPQMKGTPHFKEEQCAPALNLEMRKILDLQAPIMSLQSVLEDLLVATSDGLLHLIHWEGMTNGRKAINLCTVPFSVDLQSSRVGSFLGFTDVHIRDMEYCATLDGFAVVFNDGKVGFITPVSSRFTAEQLHGVWPQDVVDGTCVAVNNKYRLMAFGCVSGSVQVYTIDNSTGAMLLSHKLELTAKQYPDIWNKTGAVKLMRWSPDNSVVIVTWEYGGLSLWSVFGAQLICTLGGDFAYRSDGTKKDPLKINSMSWGAEGYHLWVISGFGSQNTEIESDLRSVVKQPSILLFQFIKSVLTVNPCMSNQEQVLLQGEDRLYLNCGEASQTQNPRSSSTHSEHKPSREKSPFADGGLESQGLSTLLGHRHWHVVQISSTYLESNWPIRFSAIDKLGQNIAVVGKFGFAHYSLLTKKWKLFGNITQEQNMIVTGGLAWWNDFMVLACYNINDRQEELRVYLRTSNLDNAFAHVTKAQAETLLLSVFQDMVIVFRADCSICLYSIERKSDGPNTTAGIQVLQEVSMSRYIPHPFLVVSVTLTSVSTENGITLKMPQQARGAESIMLNLAGQLIMMQRDRSGPQIREKDSNPNNQRKLLPFCPPVVLAQSVENVWTTCRANKQKRHLLEALWLSCGGAGMKVWLPLFPRDHRKPHSFLSQRIMLPFHINIYPLAVLFEDALVLGAVNDTLLYDSLYTRNNAREQLEVLFPFCVVERTSQIYLHHILRQLLVRNLGEQALLLAQSCATLPYFPHVLELMLHEVLEEEATSREPIPDPLLPTVAKFITEFPLFLQTVVHCARKTEYALWNYLFAAVGNPKDLFEECLMAQDLDTAASYLIILQNMEVPAVSRQHATLLFNTALEQGKWDLCRHMIRFLKAIGSGESETPPSTPTAQEPSSSGGFEFFRNRSISLSQSAENVPASKFSLQKTLSMPSGPSGKRWSKDSDCAENMYIDMMLWRHARRLLEDVRLKDLGCFAAQLGFELISWLCKERTRAARVDNFVIALKRLHKDFLWPLPIIPASSISSPFKNGKYRTVGEQLLKSQSADPFLNLEMDAGISNIQRSQSWLSNIGPTHHEIDTASSHGPQMQDAFLSPLSNKGDECSIGSATDLTESSSMVDGDWTMVDENFSTLSLTQSELEHISMELASKGPHKSQVQLRYLLHIFMEAGCLDWCIVIGLILRESSIINQILVITQSSEVDGEMLQNIKTGLHAVDRWASTDCPGYKPFLNIIKPQLQKLSEITEEQVQPDAFQPITMGKTPEQTSPRAEESRGSSSHGSIPQGEVGSSNMVSRKEEDTAQAEEEEPFQDGTYDCSVS [RIC1] | – | – | 0.129 | -0.168 |
| MYO9A | – | – | 0.00755 | -0.102 |
| MYTITKGPSKLVAQRRTGPTQQQVEGRLGELLKCRQPAPPTSQPPRAQPFAQPPGPWPLSSPGPRLVFNRVNGRRAPSTSPSFEGTQETYTVAHEENVRFVSEAWQQVQQQLDGGPAGEGGPRPVQYVERTPNPRLQNFVPIDLDEWWAQQFLARITSCS [FAM195A] | – | – | 0.195 | -0.457 |
| NAV2 | – | – | 0.109 | -0.147 |
| NBEAL1 | – | – | -0.118 | -0.894 |
| NCOA2 | – | – | -0.129 | 0.178 |
| NES | – | – | 0.912 | -1.35 |

| Substance | thermal stability score [1, 4] | thermal stability score ([1]; cell cycle stage: mitosis) | solubility change mitosis (log2) [2] | solubility in G1/S (log2) [3] |
| --- | --- | --- | --- | --- |
| NSA2 | – | – | 1.41 | -2.43 |
| OBSL1 | – | – | -0.0157 | -0.276 |
| PDCD11 | – | – | 1.53 | -2.88 |
| PEX16 | – | – | -0.0414 | -0.248 |
| POLR3K | – | – | 0.031 | 0.354 |
| PRR14L | – | – | 0.0491 | -0.0161 |
| RIMS1 | – | – | 0.0888 | 0.0741 |
| SHPRH | – | – | 0.00438 | -0.418 |
| SLC7A6 | – | – | -0.122 | -0.00617 |
| SMG6 | – | – | 0.113 | -0.859 |
| SZT2 | – | – | 0.317 | -0.476 |
| TAF5L | – | – | -0.0612 | -0.145 |
| TFAP2C | – | – | 0.119 | -0.0214 |
| TNRC18 | – | – | -0.234 | 0.0268 |
| TTC28 | – | – | -0.133 | 0.0118 |
| ZFYVE26 | – | – | -0.0176 | 0.0351 |
| ZNF106 | – | – | 0.915 | -1.19 |
